Test results: publication PMC8615095
Like-named read-outs stand apart in the source and are kept apart here.

Tests used:
[1] = target: membrane-bound IgE-Fc (IgE-Fc-B-cell receptor: 3xFLAG-Cε2-Cε3-Cε4-EMPD-transmembrane-intracellular domain)
[2] = target: membrane-bound IgE-Fc (IgE-Fc-B-cell receptor: 3xFLAG-Cε2-Cε3-Cε4-EMPD-transmembrane-intracellular domain); remark: listed apart in the source
[3] = target: membrane-bound IgE-Fc (IgE-Fc-B-cell receptor: 3xFLAG-Cε2-Cε3-Cε4-EMPD-transmembrane-intracellular domain); remark: listed apart in the source
[4] = target: membrane-bound IgE-Fc (IgE-Fc-B-cell receptor: 3xFLAG-Cε2-Cε3-Cε4-EMPD-transmembrane-intracellular domain); assay: flow cytometry on cells; graded concentrations of His-tagged BiTE on Ramos-Fcε (doxycycline-induced), empty-vector Ramos, Jurkat E6-1 or TIB-153 cells, 30 min on ice in 2% BSA-PBS; detected with anti-pentahis-AlexaFluor 488 (Ramos) or 647 (Jurkat, TIB-153); EC50 from geometric mean fluorescence
[5] = target: CD19 (Homo sapiens (endogenous, Ramos EHRB)) (UniProt P15391)
[6] = target: CD19 (Homo sapiens (endogenous, Ramos EHRB)) (UniProt P15391); assay: flow cytometry on cells; graded concentrations of His-tagged BiTE on Ramos-Fcε (doxycycline-induced), empty-vector Ramos, Jurkat E6-1 or TIB-153 cells, 30 min on ice in 2% BSA-PBS; detected with anti-pentahis-AlexaFluor 488 (Ramos) or 647 (Jurkat, TIB-153); EC50 from geometric mean fluorescence
[7] = target: CD19 (Homo sapiens (endogenous, Ramos EHRB)) (UniProt P15391); assay: as above; remark: listed apart in the source

CD19 (Homo sapiens (endogenous, Ramos EHRB)), sequence (P15391 20-556): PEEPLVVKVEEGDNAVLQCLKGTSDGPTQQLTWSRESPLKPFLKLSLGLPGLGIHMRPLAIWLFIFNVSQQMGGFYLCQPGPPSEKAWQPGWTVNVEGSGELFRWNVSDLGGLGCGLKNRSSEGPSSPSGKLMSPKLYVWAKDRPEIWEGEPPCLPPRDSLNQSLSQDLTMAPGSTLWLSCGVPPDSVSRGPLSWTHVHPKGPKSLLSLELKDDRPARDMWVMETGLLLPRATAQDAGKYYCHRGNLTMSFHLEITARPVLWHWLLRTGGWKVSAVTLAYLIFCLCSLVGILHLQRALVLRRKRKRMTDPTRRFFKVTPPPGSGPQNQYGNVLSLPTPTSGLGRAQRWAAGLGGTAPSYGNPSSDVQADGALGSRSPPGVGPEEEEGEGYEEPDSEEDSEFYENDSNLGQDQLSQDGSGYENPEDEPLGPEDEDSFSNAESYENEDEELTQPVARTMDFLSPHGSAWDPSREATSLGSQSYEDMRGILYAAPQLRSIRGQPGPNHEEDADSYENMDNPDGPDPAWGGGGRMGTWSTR

Row | Substance | NFAT-luciferase reporter in CD3-overexpressing T cells, fold induction with Ramos-Fcε target cells, E:T 5:1, at 80 pM [1] | IL-2 promoter-luciferase reporter in CD3-overexpressing T cells, fold activation with Ramos-Fcε target cells, E:T 2.5, at 400 pM [3] | EC50 [4] | also measured
1 | blinatumomab (anti-CD19 scFv fused to anti-CD3ε scFv, with C-terminal 8-His-tag) (bispecific antibody) | – | – | – | NFAT-luciferase reporter in CD3-overexpressing T cells with Ramos-Fcε target cells, E:T 5:1, dilutions of blinatumomab from 1 nM; EC50 of T-cell activation [5]: 0.014 nM; EC50 [6]: 2.5 nM; EC50 [7]: 5 nM
2 | omalizumab-based BiTE (anti-IgE scFv of omalizumab fused to anti-CD3ε scFv) (bispecific antibody) | 11 fold | 2 fold | 2 nM | NFAT-luciferase reporter in CD3-overexpressing T cells, fold activation with Ramos-Fcε target cells, E:T 1:1, at 80 pM [2]: 5 fold
3 | quilizumab-based BiTE (anti-IgE EMPD scFv of quilizumab fused to anti-CD3ε scFv) (bispecific antibody) | – | – | 40 nM | –

Second part, led by results:

Row | NFAT-luciferase reporter in CD3-overexpressing T cells, fold induction with Ramos-Fcε target cells, E:T 5:1, at 80 pM [1] | IL-2 promoter-luciferase reporter in CD3-overexpressing T cells, fold activation with Ramos-Fcε target cells, E:T 2.5, at 400 pM [3] | EC50 [4] | Substance | also measured
4 | 9 fold | 4 fold | 0.4 nM | MEDI4212-based BiTE (anti-IgE scFv of MEDI4212 fused to anti-CD3ε scFv) (bispecific antibody) | NFAT-luciferase reporter in CD3-overexpressing T cells, fold activation with Ramos-Fcε target cells, E:T 1:1, at 400 pM [2]: 10 fold
5 | – | – | 0.4 nM | ligelizumab-based BiTE (anti-IgE scFv of ligelizumab fused to anti-CD3ε scFv) (bispecific antibody) | NFAT-luciferase reporter in CD3-overexpressing T cells, fold induction with Ramos-Fcε target cells, E:T 5:1, at 400 pM [1]: 47 fold; NFAT-luciferase reporter in CD3-overexpressing T cells, fold activation with Ramos-Fcε target cells, E:T 1:1, 400 pM (59-fold) to 2000 pM [2]: 162 fold; IL-2 promoter-luciferase reporter in CD3-overexpressing T cells, fold specific activation with Ramos-Fcε target cells, E:T 2.5, at 2 nM [3]: 7 fold
